Experimental data published in patent publication US20260209330A1, “S100A7 AS A DIAGNOSTIC MARKER AND THERAPEUTIC TARGET FOR DISORDERS” (Ohio State Innovation Foundation, priority 2022, published 2026).

Tests used:
[1] = breast cancer patients; reported; cited from earlier work
[2] = HFD-induced obesity in wild type female FVB mice; format: in vivo, mouse; conditions: FVB mice on HFD; nAb i.p. two times a week, alone or with reboxetine 20 mg/kg·bt i.p. twice a week; vs control IgG treated group
Experimental: (§1) FIGS. 10C, 10D, 10E, 10F, and 10G show the analysis of body weight, vWAT mass (gm), tumor volume, tumor weight (gm), and Lung metastasis of VC, S100A7 nAb, Reb and combo-treated animals. *P<0.05, ** P<0.01. One way ANOVA was used for calculating statistical significance. Mouse models, obesity tumor growth analyses and flow cytometry. The NCG and wild-type 6 weeks old female FVB mice (6 weeks old) were obtained from the Charles River. S100A7 overexpressing MDA-MB-231 cells (1×10^6) were injected into the 4th mammary fat pad of NCG mice. While Mvt1 cells (1×10^5) were injected into the mammary fat pad of wild type FVB mice fed with HFD. […] Mvt-1 cells (1×10^5) were also injected into the mammary glands of S100A7 floxed (control) and KO mice. Body weights and tumors were measured weekly, and volume was calculated. In the endpoints, animals were sacrificed, and tumors and other organs were excised. All mice were kept in The OSU's animal facility in compliance with the guidelines and protocols approved by the OSU-IACUC. For flow cytometry, freshly prepared single-cell suspensions of spleen samples harvested from non-tumor bearing S100A7 floxed and KO mice were incubated with an Fc receptor blocker followed by staining with different fluorochrome-conjugated antibodies (Table 1). After staining, cells were evaluated by FACS Fortessa using CellQuest software (BD Biosciences)

PD-L1 = assay: S100A7-induced PD-L1 expression by Western blot; format: cell-based; conditions: MDA-MB-231 cells; nAb clone 28F8-2 300 ng/μl; recombinant human S100A7 100 ng/ml; GAPDH loading control
Experimental: (§2) MDA-MB-231 cells were treated with hS100A7 neutralizing antibody (clone 28F8-2; 300 ng/μl) or control IgG or PBS in the presence or absence of recombinant human S100A7 (100 ng/ml) and spheroid invasion assay was performed by using 3D-Cultrex spheroid invasion kit. […] FIG. 9B show the bar diagram representing the invaded area of spheroids. The area between red and blue circles represents the invaded area. […] GAPDH was used as a loading control. S100A7 overexpressing MDA-MB-231 cells (1×10^6) were injected into the female NCG mice. After the onset of palpable tumors, mice were either treated with vehicle control (VC), S100A7 nAb ([…], i.p. route; clone 28F8-2; two times a week) alone or in combination with ASB-14780 (50 mg/kg·bt, oral route; three times a week). […] FIGS. 9F, 9G, and 9H show the analysis of tumor volume, tumor weight, and liver metastasis of control IgG, S100A7 nAb, ASB-14780, and combination-treated. *** is p<0.001; **** is p<0.0001. One way ANOVA and t test were used for calculating statistical significance.
Western blotting, adipokine array and Immunohistochemistry (IHC). Cell or tissue lysates were analyzed by Western blotting. Briefly, samples were run on NuPAGE 4-12% gradient precast gels (Invitrogen) and probed with primary antibodies (Table 1), followed by secondary antibodies incubation, and were developed. […]

MDA-MB-231 cells [3] = assay: 3D-Spheroid invasion assay (3D-Cultrex spheroid invasion kit); format: cell-based; conditions: nAb clone 28F8-2 300 ng/μl; recombinant human S100A7 100 ng/ml; vs control IgG or PBS; invaded area on 10th day
Experimental: as §2
(§3) Trans-well migration assay and 3D-Spheroid invasion assay. MDA-MB-231 cells were treated with hS100A7 neutralizing antibody (clone 28F8-2; 300 ng/μl) or control IgG or PBS in the presence or absence of recombinant human S100A7 (100 ng/ml). […] On the 10th day, the invaded area was calculated by using the image-J plugin.

MDA-MB-231 cells [4] = assay: Trans-well migration assay; format: cell-based; conditions: nAb clone 28F8-2 300 ng/μl; recombinant human S100A7 100 ng/ml; overnight, transwell chambers
Experimental: as §2, §3

Mvt1 cells = assay: Mvt1-generated syngeneic breast tumor model in HFD-induced obese mice; format: in vivo, mouse; conditions: HFD-induced obese FVB mice with Mvt1 tumors; nAb i.p. two times a week, alone or with reboxetine 20 mg/kg·bt i.p. twice a week
Experimental: as §1

CCOc1ccccc1OC(c1ccccc1)C1CNCCO1 (stereo not drawn) [reboxetine]
depressive symptoms [1]: reduces | tolerability [1]: well tolerated

B1: S100A7 nAb: novel monoclonal S100A7 neutralizing antibody, hybridoma clone 28F8-2; heavy chain SEQ ID NO: 4, light chain SEQ ID NO: 8 (antibody)
heavy: MRVLILLWLFTAFPGILSDVQLQESGPGLVKPSQSLSLTCTVTGYSITSDYAWNWIRQFPGNKLEWMGYISYSGYTSYNPSLKSRISITRDTSKNQFFLQLNSVTTEDTTTYYCTRGGKGPMDYWGQGTSVTVSSAKTTPPSVYPLAPGSAAQTNSMVTLGCLVKGYFPEPVTVTWNSGSLSSGVHTFPAVLQSDLYTLSSSVTVPSSTWPSETVTCNVAHPASSTKVDKKIVPRDCGCKPCICTVPEVSSVFIFPPKPKDVLTITLTPKVTCVVVDISKDDPEVQFSWFVDDVEVHTAQTQPREEQFNSTFRSVSELPIMHQDWLNGKEFKCRVNSAAFPAPIEKTISKTKGRPKAPQVYTIPPPKEQMAKDKVSLTCMITDFFPEDITVEWQWNGQPAENYKNTQPIMDTDGSYFVYSKLNVQKSNWEAGNTFTCSVLHEGLHNHHTEKSLSHSPGK
light: MKSQTQVFVFLLLCVSGAHGSIVMTQTPKFLLVSAGDRVTITCKASQSVSNDVAWYHQKPGQSPKLLIYYASNRYTGVPDRFTGSGYGTDFTFTISTVQAEDLAVYFCQQDYSSPYTFGGGTKLEIKRADAAPTVSIFPPSSEQLTSGGASVVCFLNNFYPKDINVKWKIDGSERQNGVLNSWTDQDSKDSTYSMSSTLTLTKDEYERHNSYTCEATHKTSTSPIVKSFNRNEC
modifications: Description of sequence: Heavy Chain; Description of sequence: Light Chain
HFD-induced body weight gain [2]: significantly inhibited | visceral fat accumulation (vWAT mass) [2]: significantly inhibited | S100A7-induced PD-L1 expression (PD-L1): decreases | S100A7-mediated invasiveness of spheroid cells (invaded area) (MDA-MB-231 cells [3]): reduced | S100A7-mediated migration of TNBC cells (MDA-MB-231 cells [4]): inhibits | lung metastasis (Mvt1 cells): significantly reduced | tumor growth (tumor volume, tumor weight) (Mvt1 cells): significantly reduced
